Experiment [1] has as its system human with chronic pain as a result of injury. Kind of experiment: Use of Dihexa to treat chronic pain in a human (numeric rating scale, dolorimetric). The experiment is classed as in vivo. The conditions noted are these: oral; for pain reported by the subject: 200 miligrams/day. The method, then: Dihexa (N-hexanoic-Tyr-Ile-(6)aminohexanoic amide), an activator of c-Met receptor, is administered orally, 200 miligrams/day for 4 weeks, to a human for the purpose of treating pain. The subject is having chronic pain for the previous 6 months, as a result of injury. Before the beginning of treatment, and weekly thereafter for 6 months, the subject is tested for pain levels using a combination of subjective (numeric rating scale) and physiological (dolorimetric) evaluation methods.

Experiment [2] concerns rats subjected to chronic constriction injury of the sciatic nerve (CCI) or Sham surgery. As to the kind of experiment: Mechanical nociceptive sensitivity (von Frey filaments) in CCI and Sham rats. The format is in vivo, rat.
The test system is the same in experiment [3]. Kind of experiment: Thermal nociceptive sensitivity (Hargreaves method, radiant heat withdrawal latency) in CCI and Sham rats. The experiment is classed as in vivo, rat.
In experiment [4] the test system is Mash1, DCX and Notch3 expression in spinal cord gray matter. Kind of experiment: Immunofluorescence quantification of immature neuron markers in spinal cord gray matter. The experiment is classed as in vivo, rat. To be noted: vs CCI+Veh.
Experiment [5] relates to human patient diagnosed with fibromyalgia. Kind of experiment: Use of NT4 to treat pain in a human patient diagnosed with fibromyalgia. The format is in vivo. To be noted: for pain reported by the patient: injected into the spinal canal every other day for 3 weeks. The method, then: NT4 is a TrkB ligand and inducer of neuronal differentiation that may be used to treat pain. NT4 (200 microliters, 1 microgram/ml) is injected every other day for 3 weeks (10 injections total) into the spinal canal of a human patient diagnosed with fibromyalgia. […] To prevent pain reoccurrence, a maintenance dose of 7,8-dihydroxy-4′-dimethylaminoflavone-8-O-glucozide (3-4 grams per day for 4-5 consecutive days) may be administered every month.

Setting [6] is: intraperitoneal DHF treatment delayed for 3 weeks after CCI.
[7] abbreviates: intrathecal BDNF treatment delayed for 3 weeks after CCI.
Where [8] appears, read: intrathecal injection every other day for first 3 weeks after CCI/Sham surgery, tested weekly, vs vehicle.

“Also recorded” adds a separate entry of the source.

Consider “N-hexanoic-Tyr-Ile-(6)aminohexanoic amide [Dihexa]”, for which, in experiment [1] (200 miligrams/day for 4 weeks), the “time until increased pain sensitivity may reoccur” value is reported as 3 months. Further, the “pain reported by the subject” value in experiment [1] (after 2 weeks of treatment) is reported as “decreased pain”; in experiment [1] (after 4 weeks of treatment) it was “pain sensitivity is back to normal levels”.
With `O=c1cc(-c2ccccc2)oc2c(O)c(O)ccc12` [DHF, 7,8-dihydroxyflavone, reference compound], the “duration of the decrease in pain” value in experiment [2] (DHF intraperitoneal treatment applied for only 3 weeks) came out at 3 months. Moreover, the “long-term mechanical pain sensitivity” value in experiment [2] (setting [6]) was “extended long-term decrease in mechanical and thermal pain susceptibility; also recorded: long-term decrease in pain sensitivity”. Further, in experiment [2] (intraperitoneal injection every other day for 3 weeks immediately after CCI/Sham surgery, vs vehicle), the “mechanical pain sensitivity / mechanical pain threshold” value is “reduces long-term mechanical pain susceptibility; also recorded: long-term increase in mechanical pain threshold (decrease in pain sensitivity)”. In addition, the “long-term thermal pain sensitivity” value in experiment [3] (setting [6]) was “extended long-term decrease in mechanical and thermal pain susceptibility; also recorded: long-term decrease in pain sensitivity”. For the same molecule, the “expression of immature neuron markers Mash1, DCX and Notch3” value in experiment [4] (intraperitoneal injection every other day for 3 weeks after CCI, spinal cords taken after 4 weeks) is “reduces the expression of Mash1, DCX and Notch3; also recorded: reducing the expression of all three markers”.

B1: BDNF: brain-derived neurotrophic factor, TrkB ligand and promoter of neuronal differentiation, injected intrathecally (protein)
chain: HSDPARRGELSVCDSISEWVTAADKKTAVDMSGGTVTVLEKVPVSKGQLKQYFYETKCNPMGYTKEGCRGIDKRHWNSQCRTTQSYVRALTMDSKKRIGWRFIRIDTSCVCTLTIKRGR
With B1, in experiment [2] (BDNF intrathecal treatment applied for only 3 weeks), the “duration of the decrease in pain” value was 3 months. For the same molecule, the “long-term mechanical pain sensitivity” value in experiment [2] (setting [7]) is “long-term reduction in pain and pain susceptibility; also recorded: long-term decrease in pain sensitivity”. Also, the “mechanical nociceptive (pain) sensitivity / mechanical pain threshold” value in experiment [2] (setting [8]) is given as “reduction in mechanical pain susceptibility (increased pain threshold); also recorded: long-term increase in mechanical pain threshold (decrease in pain sensitivity)”. In addition, in experiment [3] (setting [7]), the “initial short-term increase in thermal pain sensitivity (duration)” value is 2 to 3 days and the “long-term thermal pain sensitivity” value is “reduced thermal pain susceptibility; also recorded: long-term decrease in pain sensitivity”. Further, in experiment [3] (setting [8]), the “thermal nociceptive (pain) sensitivity” value was “may increase long-term sensitivity to thermal pain; also recorded: increased long-term thermal pain sensitivity”. The “expression of immature neuron markers Mash1, DCX and Notch3” value in experiment [4] (intrathecal injection every other day for 3 weeks after CCI, spinal cords taken at week 4) was “reduction in the expression of Mash1, DCX and Notch3; also recorded: reducing the expression of all three markers”.

B2: NT4: neurotrophin 4, a TrkB ligand and inducer of neuronal differentiation (protein)
chain: GVSETAPASRRGELAVCDAVSGWVTDRRTAVDLRGREVEVLGEVPAAGGSPLRQYFFETRCKADNAEEGGPGAGGGGCRGVDRRHWVSECKAKQSYVRALTADAQGRVGWRWIRIDTACVCTLLSRTGRA
For B2, the results for the “pain reported by the patient” value in experiment [5] (after 2 weeks), in experiment [5] (after 3-4 weeks) and in experiment [5] (after 4-5 days) were “decreased pain”, “no pain” and “increased pain”, respectively. The “time after which the increase in pain subsides” value in experiment [5] (injected into the spinal canal every other day, with continued treatment) was in the range of 7 to 10 days.
